The source of these data is publication PMC5489143, “One ligand, two regulators and three binding sites: How KDPG controls primary carbon metabolism in Pseudomonas” (PLoS Genetics, 2017).

Data set [1] concerns the target T1, RccR (RccR-His) (Pseudomonas paralactis, UniProt A0A0R3AJU3).
T1 construct: gene hexR; full gene in pET42b, E. coli BL21(DE3) pLysS; C-terminal His tag kept; nickel and heparin columns
T1 sequence (A0A0R3AJU3 1-288): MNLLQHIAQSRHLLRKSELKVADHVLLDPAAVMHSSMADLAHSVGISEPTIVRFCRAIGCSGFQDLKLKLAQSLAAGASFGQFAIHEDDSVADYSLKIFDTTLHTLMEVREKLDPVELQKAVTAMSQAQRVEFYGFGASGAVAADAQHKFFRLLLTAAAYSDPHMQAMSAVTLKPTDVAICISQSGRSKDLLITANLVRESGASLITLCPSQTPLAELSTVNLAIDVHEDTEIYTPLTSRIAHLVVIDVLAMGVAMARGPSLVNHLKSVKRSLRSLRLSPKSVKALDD
As to the kind of experiment: SPR (ReDCaT, Biacore T200), change of RccR binding to immobilised DNA. The note with it: effector; lowers binding to aceE and rccR sites, raises binding to aceA 28 bp site; 0.5 uM RccR-His, 0-1000 uM ligand, 10 mM Hepes pH 7.4, 300 mM NaCl, 3 mM EDTA, 25 C. For orientation: In SPR one partner is held on a chip, and binding of the other changes the refractive index at the surface.

Data set [2] relates to RccR-His (Pseudomonas fluorescens SBW25). The experiment in a line: DNase I footprinting. The conditions noted are these: full protection concentration, SPR: 10 mM Hepes pH 7.4, 300 mM NaCl, 3 mM EDTA, 0.05% Tween20, 25 C, DNase I footprint: 10 mM Tris-HCl pH 8.0, 50 mM NaCl, 10 mM KCl, 5 mM MgCl2, 1 mM DTT ….

Turning to `O=C(O)C(=O)C[C@H](O)[C@H](O)COP(=O)(O)O` [KDPG, 2-keto-3-deoxy-6-phosphogluconate], the “%Rmax” value in data set [1] was “KDPG addition decreased the affinity of RccR-His for both aceE and rccR consensus sequences”. aceA promoter DNase I probe yielded a binding signal in data set [2] (lower affinity than aceE and rccR) of 80 nM. Compound aceE promoter DNase I probe gave a binding signal in data set [2] (two sites) of 10 nM. rccR promoter DNase I probe gave a binding signal in data set [2] of 20 nM.
